Our source for the Km values is ChEMBL document CHEMBL1128918, “Deuterium isotope effects on porphobilinogen synthesis catalysed by 5-aminolaevulinic acid dehydratase” (Bioorg Med Chem Lett, 1996).

Substrate in the series: NCC(=O)CCC(=O)O
The series can be described thus: The Michaelis-Menten rate of reaction catalyzed by ALA dehydratase from Bacillus subtilis measured spectrophotometrically.

B1: Delta-aminolevulinic acid dehydratase (Homo sapiens), P13716 (protein)
chain: MQPQSVLHSGYFHPLLRAWQTATTTLNASNLIYPIFVTDVPDDIQPITSLPGVARYGVKRLEEMLRPLVEEGLRCVLIFGVPSRVPKDERGSAADSEESPAIEAIHLLRKTFPNLLVACDVCLCPYTSHGHCGLLSENGAFRAEESRQRLAEVALAYAKAGCQVVAPSDMMDGRVEAIKEALMAHGLGNRVSVMSYSAKFASCFYGPFRDAAKSSPAFGDRRCYQLPPGARGLALRAVDRDVREGADMLMVKPGMPYLDIVREVKDKHPDLPLAVYHVSGEFAMLWHGAQAGAFDLKAAVLEAMTAFRRAGADIIITYYTPQLLQWLKEE
On to B1, for which the Km is 241 µM [middle of 4 runs].
